# Laboratory results as given in the nanobody polyreactivity screen of Harvey et al. (2022).
# Assay: yeast display, Sf9 membrane polyspecificity reagent, FACS + sequencing; frameworks hold sequencing errors
# In short: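 Galactose-induced (36–48 hours) yeast carrying a synthetic nanobody display library were exposed to 10% biotinylated, detergent-solubilized Sf9 membrane reagent at 4 °C for 1 hour. FACS followed streptavidin microbead enrichment, using low and high (top ~1%) gates for expression (anti-HA) and reagent binding (streptavidin). Colony PCR, MiSeq 2 × 250 sequencing and CDR-length filtering followed. Labels for polyreactivity reflect the gate of origin.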
row,Sequence,polyreactivity (PSR sort gate)
1,QVQLVESGGGLVQAGGSLRLSCAACGFIFRRYAMGWYRQAPGKERELVAAISSGGNTNYADSVKGRFTISRDNAKNTVYLQMNSLKPEDTAVYYCAVLGWYYYKYDYWGQGTQVNVSS,high polyreactivity
2,QVQLVESGGGLVQAGGSLRLSCAACGFIFSSNAMGWYTPAPGNERELVAAITGGGGRTRYADSVKGRFTISRDNAKNSVYLQMNSLKPEDTAVYYCNTVYYVYYRSYSYKGDYWGQGTQVTVSS,high polyreactivity
3,QVQLVESGGGLVQAGGSLRLSCAACGFIFYKNAMGWYRQAPGKERELFAAISGGGGSTSYADSVKGRFTISRDNAKNTVYLQMNSLKPEDTAVYYCATYSFRRTGWRYDYWGQGTQVTVSS,high polyreactivity
4,QVQLVESGGGLVQAGGSLRLSCAACGFTFTAYAMVWYRQAPGKERELVAAISYRGGRTNYAYSVKGRFTISRDNAKNTVYLQMNSLKPEDTAVYYCAARPRISTREMDYWRQGTQVTVSS,high polyreactivity
5,QVQLVESGGGLVQAGGSLRLSCAACGGTFGNYAMGWYRQAPGKDRELVAAISTRGGSTYYADSVKGRFTISRDNAKNTVYLQMNSLKPEDTAVYYCNARIKRPRGVYGGDYWGQGTQVTVSS,high polyreactivity
6,QVQLVESGGGLVQAGGSLRLSCAACGITWGYAMGWYRQAPGKERELVAVIRWSGTSTSYADSVKGRYTISRAKAKNTVYLQMNSLKPEDTAVYYCNAAWYDQYGDSDGDDYWGQGTQVTVSS,low polyreactivity
7,QVQLVESGGGLVQAGGSLRLSCAACGRIFTYNAMGWYRQAPGKERELVAAISSSGGRTYYADSVKGRFTISRDNAKNTLYLEMNSLKPEDTAVYYCARAYREGGRTQRGDYWGQGTQVTVSS,high polyreactivity
8,QVQLVESGGGLVQAGGSLRLSCAACGRIFVRNAMGWYRQAPGKERELVADITNGGSTNYADSVKGRFTISRDNAKNTVYLQMNSLKPEDTAVYYCGAVYYSTDYYFWYDYWGQGTQVTVSS,low polyreactivity
9,QVQLVESGGGLVQAGGSLRLSCAACGRTSSIYAMGWYRQAPGKERELVATITGGAVSTSYADSVKGRFTISRDNAKYTVYLQMNSLKPEDSAVYYCAADHWRYRSRPVNYWRQGTQVTVSS,high polyreactivity
10,QVQLVESGGGLVQAGGSLRLSCAACGSIFKGNAMGWYRQAPGKERELVARISSGGSTYYADSVKGRFTISRDNAKNTVYLQMNSLKPEDTAVYYCAARVYTSYIRQYTYSYYYWGQGTQVTVSS,high polyreactivity
11,QVQLVESGGGLVQAGGSLRLSCAACGSILKQYAMGWYRQAPGKERVLDAAITWRGTGTYYADSVKGRFTISRDNAKKTVYLLMNSLQAEDTAVSYCAAKWYRRTYGYLPYTGIVNYDYWGQGTQLTVSS,high polyreactivity
12,QVQLVESGGGLVQAGGSLRLSCAACGSTFRYYAMGWYRQAPGKERELVAAITYSGGSTYYADSVKGRFTISRDNAKNTVYLQMNSLKPEDTAVYYCNADFLPRWYPPPYDYWGQGTQVTVSS,high polyreactivity
13,QVQLVESGGGLVQAGGSLRLSCAACGSTFYVNTMGWYRQAPGKERELVAAITDSGVGTYADSVKGRFTISRDNAKNTVYLQMNSLKPEDTAVYYCNADGRYYDDETYDYWGQGTQVTVSS,low polyreactivity
14,QVQLVESGGGLVQAGGSLRLSCAACVRTFSGYAMGWYRPAPGKERELVAAIRWSGGSTYYADSVKGRFTISRDNAKNTVYLQMNSLKPEDTAVYYCATRDYYYRYGYWGQGTQVTVSS,high polyreactivity
15,QVQLVESGGGLVQAGGSLRLSCAAFGFTFNSYAMGWNRQAPGKERELVAGITSSGGGTYYADSVKGRFTISRDNAKNTVYLQMNSLKPEDTAVYYCNTYSYLFSRYGFWGQGTQVTVSS,high polyreactivity
16,QVQLVESGGGLVQAGGSLRLSCAAFGSIFGYNAMGSYRQAPGKEREFVAAISWSGGRTYYADSVKGRFTISRDNAKNTVYLQMNSLKPEDTAVYYCAAPSRPAPRFDYWGQGTQVTVSS,low polyreactivity
17,QVQLVESGGGLVQAGGSLRLSCAAPGSTIRANAMGWYRQAPGKEMELVAAITKNGGSTYYADSVKGRFTISRDNAKNTVYLQMNSLKPEDTAVYYCAARRSSRRPPYYYWGQGTQVTVSS,high polyreactivity
18,QVQLVESGGGLVQAGGSLRLSCAASAFILQRNAMGWYRQAHGKERELVAAISSRGGSTYYADSVKGRFTISRDNAKNTVYLQMNSLKPEDTAVYYCNRRSRAHGYGSQYDYWGQGTQVTVSS,low polyreactivity
19,QVQLVESGGGLVQAGGSLRLSCAASAIIFDGNTMGWYRQAPGKEREFVAAISRNGGTTSYADSVKGRFTISRDNAKNTVYLQMNSLKPEDTAVYYCAADVETFWGWRYEYWGQGTQVTVSS,low polyreactivity
20,QVQLVESGGGLVQAGGSLRLSCAASAIIFYKNAMGWYRQAPGKERELVAAITRGGSTNYADSVKGRFTISRDNAKNTVYLQMNSLKPEDTAVYYCDKRWFYTRYPTYDYWGQGTQVTVSS,low polyreactivity

row,Sequence,polyreactivity (PSR sort gate)
1,QVQLVESGGGLVQAGGSLRLSCAASARIFFTYVMGWYRQAHGKEREFVAAITFSDGTTYYADSVKGRFTISRDNAKNTVYLQMNSLKPEDTAVYYCNTDSFYGFVYPWTISSEVDYWGQGTQVTVSS,low polyreactivity
2,QVQLVESGGGLVQAGGSLRLSCAASARIFPWNAMGWYRQAPGKERELVAAITSGGGTTYYADSVKGRFTISRDNAKNTVYLQMNSLKPEDTAVYYCATPWEGSSTADYRISVYYWGQGTQVTVSS,low polyreactivity
3,QVQLVESGGGLVQAGGSLRLSCAASARIFYAYTMGWYRQAPGKERELVAAISGSGSTYYADSVKGRFTISRDNAMNTFFLQMNSLKPEDTAVYYCAADVTGGRKYDYWGQGTEVTVSS,low polyreactivity
4,QVQLVESGGGLVQAGGSLRLSCAASARTFATYAMGWYRHAPGKEWELVAGITSGGNTYYADSVKGRFTISRDNAKNTVYLQMNSLKPVDTAVYYCAADRVYLGLFRYEYWGQGTQVTVSS,high polyreactivity
5,QVQLVESGGGLVQAGGSLRLSCAASARTFYYNGMGWYIQAPGKERELVAASSGGGSSTSYADSVKGRFTISRDNAKNTVYLQMNSLKPEDTAVYYCAAKYGALRYYKMYYWGQGTQVTVSS,low polyreactivity
6,QVQLVESGGGLVQAGGSLRLSCAASASIFDIYGMGWYRKAPGKERELVASISGGAGSTNYADSVKGRFTISRDNAKNTVYLQMNSLKPEDTAVYYCAADSADPTEYDYWGQGTQVTVSS,low polyreactivity
7,QVQLVESGGGLVQAGGSLRLSCAASASIFPDNTMGWYRQAPGKERELVAAIDGRGGTTYYADSVKGRFTISRDNAKNTVYLQMNSLKPEDTAVYYCARDIGHSARYDYWGQGTQVTVSS,low polyreactivity
8,QVQLVESGGGLVQAGGSLRLSCAASASIFWYNSMGWYRQAPGKEREFVDSISGSGTSTYADSVKGRFTISRDNAKNTVYLQMNSLKPEDTAVYYCIAYYEYSWLYSNWLYGKYDYWGQGTQVTVSS,low polyreactivity
9,QVQLVESGGGLVQAGGSLRLSCAASASIISYYAKGWYRQAPGKERELVAAISGSGSRTYYADSVKGRFTISRDNAKNTVYLQMNSLKPEDTAVYYCAARSLYRGFGYWGQGTQVTVSS,high polyreactivity
10,QVQLVESGGGLVQAGGSLRLSCAASASTFILSAMGWYRQAPGNERELVAAISSDGSTYYADSVKGRFTISRDNAKNTVYLQMNSLKPEDTAVYYCAAYGYDADTGYDYWGQGTQVTVSS,low polyreactivity
11,QVQLVESGGGLVQAGGSLRLSCAASASTFVYYAMGWYRQAPGKERELVAAISRSGTSTYYADSVKGRFTISRDNAKNTVYLQMNSLKPEDTAVFYCNARKKQGFDYWGQGTQVTVSS,high polyreactivity
12,QVQLVESGGGLVQAGGSLRLSCAASASTFWRYAMGWYRQAPGKERELVAAISWNGGSTYYADSVKGRFTISRDNAKNTVYLQMNSLKPEDTAVYYCARGYSWSVGYPRVQDMDYWGQGTQVTVSS,high polyreactivity
13,QVQLVESGGGLVQAGGSLRLSCAASEFTFLLYAMGWYRQAPGKERELVAAISRTGGSTYYADSVKGRFTISRDNAKKTVYLQMNSLNPEDTAVYYCNAAISRAWVSYYGSSSRYDYWGQGTQVTVSS,low polyreactivity
14,QVQLVESGGGLVQAGGSLRLSCAASFRYNDMGWYRQAPGKERELDAAISSGASTSYPDSVKGRFTISRDNAKNTVYLQMNSLKPEDSAVSYCAAETYELYGLNEYDYWGQGTQVTVSS,low polyreactivity
15,QVQLVESGGGLVQAGGSLRLSCAASGAILRRYAMGWYRQAPGKERELVAAISYSGGNTYYADSVKGRFTISRDNAKNTVYLQMNSLKPEDTAVYYCAARYYGTYRGFYYWGQGTQVTVSS,high polyreactivity
16,QVQLVESGGGLVQAGGSLRLSCAASGFAFSYYAMGWYRQATGKEREFVASIDWSGGSTYYADSVKGRFTISRDNAKNTVYLQLNSLKPEDTAVYYCAAELDYFPGYDYWGQGTQVTVSS,low polyreactivity
17,QVQLVESGGGLVQAGGSLRLSCAASGFAVSYYAMAWYRQAPGKEREFVASSDWSGGSTYYADSVKGRFTISRDNAKNTVYLQMNSLKPEYTAVYYCAAELVYFPGYDYWGQGTQVTVSS,low polyreactivity
18,QVQLVESGGGLVQAGGSLRLSCAASGFIFAAYAMGWYRQAPGKERELVAAISGSGGRTYYADSVKGRFTISRDNAKNTVYLQMNSLKPEDTAVYYCATPPGYPPGSIKWSRFGYWGQGTQVTVSS,high polyreactivity
19,QVQLVESGGGLVQAGGSLRLSCAASGFIFADNAMGWYRQAPGKERELVAGITSGGITNYADSVKGRFTISRDNAKNTVYLQMNSLKPEDTAVYYCAVYYRRWFSRYDYWGQGTQVTVSS,low polyreactivity
20,QVQLVESGGGLVQAGGSLRLSCAASGFIFADNTMGWYRQAPGKERELVAAISRRGGSTYYADSVKGRFTISRDNAKNTVYLQMNSLKPEDTAVYYCAARPFVKHDYWGQGTQVTVSS,high polyreactivity
